For data set [1], the system named is hGR G424 424 to Gly (Homo sapiens). The experiment in a line: pulldown. Conditions: relative to hGR-SB.
The test system of data set [2] is hGR G470 470 to Gly (Homo sapiens). The experiment in a line: pulldown. The note with it: relative to hGR-SB.
Data set [3] deals with hGR delta420-451 deletion between residues 420 and 451 (printed positions are the non-deleted junction residues) (Homo sapiens). The experiment in a line: pulldown. The note with it: relative to hGR-SB.
Data set [4] has as its system hGR G453 453 to Gly (Homo sapiens). The data set is described as follows: pulldown. The note with it: relative to hGR-SB.
The test system of data set [5] is hGR G437 437 to Gly (Homo sapiens). The experiment in a line: pulldown. Conditions: relative to hGR-SB.
In data set [6] the test system is hGR G444 444 to Gly (Homo sapiens). The experiment in a line: pulldown. The note with it: relative to hGR-SB.
Data set [7] relates to hGR G432 432 to Gly (Homo sapiens). The experiment in a line: pulldown. The note with it: relative to hGR-SB.
Data set [8] deals with hGR G465 465 to Gly (Homo sapiens). The data set is described as follows: pulldown. The note with it: relative to hGR-SB.
In data set [9] the test system is hGR G477 477 to Gly (Homo sapiens). The data set is described as follows: pulldown. Conditions: relative to hGR-SB.
The test system of data set [10] is hGR G462 462 to Gly (Homo sapiens). The experiment in a line: pulldown. Conditions: relative to hGR-SB.
Data set [11] has as its system hGR G421 421 to Gly (Homo sapiens). The experiment in a line: pulldown. The note with it: relative to hGR-SB.
Data set [12] concerns hGR G423 423 to Gly (Homo sapiens). The experiment in a line: pulldown. Conditions: relative to hGR-SB.
Data set [13] has as its system hGR G445 445 to Gly (Homo sapiens). The data set is described as follows: pulldown. The note with it: relative to hGR-SB.
For data set [14], the system named is hGR G457 457 to Gly (Homo sapiens). The data set is described as follows: pulldown. The note with it: relative to hGR-SB.
Data set [15] has as its system hGR G479 479 to Gly (Homo sapiens). The experiment in a line: pulldown. The note with it: relative to hGR-SB.
Data set [16] has as its system hGR G481 481 to Gly (Homo sapiens). The experiment in a line: pulldown. The note with it: relative to hGR-SB.
In data set [17] the test system is hGR G473 473 to Gly (Homo sapiens). The data set is described as follows: pulldown. Conditions: relative to hGR-SB.
Data set [18] relates to hGR G447 447 to Gly (Homo sapiens). The experiment in a line: pulldown. The note with it: relative to hGR-SB.
Data set [19] deals with hGR G433 433 to Gly (Homo sapiens). The data set is described as follows: pulldown. The note with it: relative to hGR-SB.
The subject of data set [20] is hGR G450 450 to Gly (Homo sapiens). The experiment in a line: pulldown. The note with it: relative to hGR-SB.
The subject of data set [21] is hGR delta450-487 deletion between residues 450 and 487 (printed positions are the non-deleted junction residues) (Homo sapiens). The experiment in a line: pulldown. The note with it: relative to hGR-SB.
Data set [22] has as its system hGR-SB (human glucocorticoid receptor, wild-type equivalent) (Homo sapiens). The experiment in a line: pulldown. The note with it: immunoprecipitation DNA binding, reference.
In data set [23] the test system is hGR G460 460 to Gly (Homo sapiens). The experiment in a line: pulldown. Conditions: relative to hGR-SB.
Data set [24] concerns hGR G474 474 to Gly (Homo sapiens). The experiment in a line: pulldown. The note with it: relative to hGR-SB.
Data set [25] deals with hGR G442 K442G (Homo sapiens). The data set is described as follows: pulldown. The note with it: relative to hGR-SB; binds but transcriptionally inactive.
The subject of data set [26] is hGR G446 446 to Gly (Homo sapiens). The experiment in a line: pulldown. The note with it: relative to hGR-SB; may be unstable in vitro.
In data set [27] the test system is hGR G431 C431G (Homo sapiens). The data set is described as follows: pulldown. The note with it: relative to hGR-SB.
For data set [28], the system named is hGR G455 455 to Gly (Homo sapiens). The experiment in a line: pulldown. Conditions: relative to hGR-SB; may be unstable in vitro.
Data set [29] relates to hGR G463 463 to Gly (Homo sapiens). The data set is described as follows: pulldown. The note with it: relative to hGR-SB.
Data set [30] deals with hGR G467 467 to Gly (Homo sapiens). The data set is described as follows: pulldown. The note with it: relative to hGR-SB; may be unstable in vitro.
Data set [31] has as its system hGR G480 480 to Gly (Homo sapiens). The data set is described as follows: pulldown. Conditions: relative to hGR-SB.
Data set [32] deals with hGR G426 D426G (Homo sapiens). The experiment in a line: pulldown. The note with it: relative to hGR-SB.
Data set [33] relates to hGR G471 471 to Gly (Homo sapiens). The data set is described as follows: pulldown. Conditions: relative to hGR-SB.
For data set [34], the system named is hGR G438 438 to Gly (Homo sapiens). The experiment in a line: pulldown. Conditions: relative to hGR-SB.
In data set [35] the test system is hGR G476 476 to Gly (Homo sapiens). The experiment in a line: pulldown. The note with it: relative to hGR-SB.
Data set [36] concerns hGR G441 441 to Gly (Homo sapiens). The data set is described as follows: pulldown. Conditions: relative to hGR-SB.
Data set [37] has as its system hGR G486 486 to Gly (Homo sapiens). The experiment in a line: pulldown. Conditions: relative to hGR-SB; may be unstable in vitro (10% activity in cells).
Data set [38] has as its system rTRalpha-Bm+ (rat thyroid hormone receptor alpha) BamHI linker at amino acid 21 (Rattus norvegicus), P63059-2. The experiment in a line: cell_activity. Conditions: TRE-CAT, T3; which TRE (rGH or palindromic) not stated.
The target of data set [39] is G-gal-G (hGR with DNA binding domain replaced by GAL4 1-74) (Homo sapiens / Saccharomyces cerevisiae) (UniProt P04150+P04386). The data set is described as follows: cell_activity.
G-gal-G (hGR with DNA binding domain replaced by GAL4 1-74) (Homo sapiens / Saccharomyces cerevisiae), sequence (P04150 other isoform, or with tags, fused parts or gaps, chain 1 of 2): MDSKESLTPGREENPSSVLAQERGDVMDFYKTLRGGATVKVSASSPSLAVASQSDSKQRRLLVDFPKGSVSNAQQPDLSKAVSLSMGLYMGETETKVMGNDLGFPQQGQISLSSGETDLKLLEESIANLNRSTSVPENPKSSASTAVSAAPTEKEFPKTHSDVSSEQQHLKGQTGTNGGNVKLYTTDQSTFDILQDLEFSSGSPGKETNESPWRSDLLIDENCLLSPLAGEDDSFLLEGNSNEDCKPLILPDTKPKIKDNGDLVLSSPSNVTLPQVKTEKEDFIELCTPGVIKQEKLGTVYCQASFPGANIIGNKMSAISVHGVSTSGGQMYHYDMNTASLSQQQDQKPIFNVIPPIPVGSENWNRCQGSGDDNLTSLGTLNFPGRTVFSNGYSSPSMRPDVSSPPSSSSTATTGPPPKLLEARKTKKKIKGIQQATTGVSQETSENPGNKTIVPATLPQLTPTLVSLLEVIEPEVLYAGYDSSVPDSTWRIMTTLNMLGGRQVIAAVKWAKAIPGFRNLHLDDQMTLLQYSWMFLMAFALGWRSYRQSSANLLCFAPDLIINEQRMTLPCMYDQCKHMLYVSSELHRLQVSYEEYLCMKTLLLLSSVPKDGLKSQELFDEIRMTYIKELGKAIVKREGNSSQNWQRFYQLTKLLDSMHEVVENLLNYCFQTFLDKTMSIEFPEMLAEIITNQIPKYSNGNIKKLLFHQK
G-gal-G (hGR with DNA binding domain replaced by GAL4 1-74) (Homo sapiens / Saccharomyces cerevisiae), sequence (P04386 1-74, chain 2 of 2): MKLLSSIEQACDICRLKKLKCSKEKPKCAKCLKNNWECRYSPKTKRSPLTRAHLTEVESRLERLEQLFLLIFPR
For data set [40], the target named is GAL4 (Saccharomyces cerevisiae) (UniProt P04386). The data set is described as follows: cell_activity. Conditions: CAT reporter.
GAL4 (Saccharomyces cerevisiae), sequence (P04386 whole entry, the tested form may be a part): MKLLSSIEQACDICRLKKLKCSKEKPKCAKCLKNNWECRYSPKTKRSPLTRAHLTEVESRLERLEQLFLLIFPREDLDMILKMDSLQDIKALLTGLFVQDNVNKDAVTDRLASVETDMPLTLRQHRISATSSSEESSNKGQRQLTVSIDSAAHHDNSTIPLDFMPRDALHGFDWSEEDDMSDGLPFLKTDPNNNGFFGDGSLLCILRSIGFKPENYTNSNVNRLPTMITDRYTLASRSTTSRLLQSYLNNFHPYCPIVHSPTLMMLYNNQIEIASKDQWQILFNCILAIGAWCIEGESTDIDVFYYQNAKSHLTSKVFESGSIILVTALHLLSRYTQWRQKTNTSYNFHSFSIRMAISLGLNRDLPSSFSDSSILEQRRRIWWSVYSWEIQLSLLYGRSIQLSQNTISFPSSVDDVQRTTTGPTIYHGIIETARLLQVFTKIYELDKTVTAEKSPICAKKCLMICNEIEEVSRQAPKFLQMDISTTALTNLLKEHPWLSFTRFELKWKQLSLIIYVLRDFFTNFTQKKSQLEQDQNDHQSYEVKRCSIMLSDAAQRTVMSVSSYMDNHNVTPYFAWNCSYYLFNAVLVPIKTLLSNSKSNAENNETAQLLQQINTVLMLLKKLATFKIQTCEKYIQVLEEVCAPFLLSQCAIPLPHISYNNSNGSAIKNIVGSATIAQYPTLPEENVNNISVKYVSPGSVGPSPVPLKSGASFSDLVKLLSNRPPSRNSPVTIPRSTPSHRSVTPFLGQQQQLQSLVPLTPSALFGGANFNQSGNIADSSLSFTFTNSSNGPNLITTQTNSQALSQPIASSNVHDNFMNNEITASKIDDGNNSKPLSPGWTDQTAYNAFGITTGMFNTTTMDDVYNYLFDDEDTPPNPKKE

rTRalpha-Bm+ (rat thyroid hormone receptor alpha) BamHI linker at amino acid 21 (Rattus norvegicus), P63059-2, sequence (P63059 whole entry, looked up, the tested form may be a part): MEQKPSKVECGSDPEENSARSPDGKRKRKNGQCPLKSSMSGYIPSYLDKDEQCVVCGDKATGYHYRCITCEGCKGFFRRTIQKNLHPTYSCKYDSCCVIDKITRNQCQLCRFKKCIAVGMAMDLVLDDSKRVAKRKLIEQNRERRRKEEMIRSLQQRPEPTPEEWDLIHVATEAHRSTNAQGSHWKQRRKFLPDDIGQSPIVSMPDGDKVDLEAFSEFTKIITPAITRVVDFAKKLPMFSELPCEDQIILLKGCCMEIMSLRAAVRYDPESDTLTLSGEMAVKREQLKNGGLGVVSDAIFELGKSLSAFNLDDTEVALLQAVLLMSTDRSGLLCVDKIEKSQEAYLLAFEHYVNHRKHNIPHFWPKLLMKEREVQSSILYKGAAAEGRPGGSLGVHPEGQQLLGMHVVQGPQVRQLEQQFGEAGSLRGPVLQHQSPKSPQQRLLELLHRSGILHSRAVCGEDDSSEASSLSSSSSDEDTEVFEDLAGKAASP

Take GRE-containing DNA fragment: the binding signal in data set [1] is 1%; in data set [2], 4%; in [3] it was 1%; in data set [4], 60%; in data set [5] it was 8%; in data set [6], 1%. Besides, the binding signal in data set [7] was 30%; in data set [8] it was 1%; in data set [9], 1%; in data set [10], 40%; in [11], less than 1%; in [12], less than 1%. Moreover, the binding signal in data set [13] is less than 1%; in [14] it was 2%; in data set [15], 40%; in data set [16] it was 3%; in data set [17], less than 1%; in [18], 2%. The binding signal in data set [19] was determined as 1%; in data set [20] it was 50%; in data set [21] it was 1%; in data set [22] it was 100%; in data set [23] it was 90%; in data set [24] it was 95%. Moreover, the binding signal in data set [25] is 60%; in [26] it was 6%; in data set [27], 10%; in data set [28], 6%; in data set [29] it was 1%; in [30], 6%. Further, the binding signal in [31] was 50%; in [32] it was 75%; in [33], 6%; in [34] it was less than 1%; in data set [35] it was less than 1%; in data set [36] it was less than 1%. In data set [37], this substance returned a binding signal of 1%.

Regarding “TCAGGTCATGACCTGA (double strand) [TRE of TRE-CAT reporter (palindromic TRE)]”, the activity in [38] was 100%.

In data set [39] (relative to deltaMTV-GAL-CAT, possible cryptic site), “deltaMTV-CAT promoter (no GAL4 site, GREs deleted)” displayed an activity of 5%.

Turning to “deltaMTV-GAL-CAT promoter with synthetic GAL4 site 17MX”, the activity in [39] (with hormone) is 500 fold; in data set [40], 20 fold.
